Source: patent US20190153119A1

What was measured:
[1] = biological target: TF on A431 cells (human) (UniProt P13726); test: flow; details: Fc fusion
[2] = biological target: TF on A431 cells (human) (UniProt P13726); test: flow; details: Fc fusion; remark: listed apart in the source

Sequence of UniProt P13726 (P13726 33-295): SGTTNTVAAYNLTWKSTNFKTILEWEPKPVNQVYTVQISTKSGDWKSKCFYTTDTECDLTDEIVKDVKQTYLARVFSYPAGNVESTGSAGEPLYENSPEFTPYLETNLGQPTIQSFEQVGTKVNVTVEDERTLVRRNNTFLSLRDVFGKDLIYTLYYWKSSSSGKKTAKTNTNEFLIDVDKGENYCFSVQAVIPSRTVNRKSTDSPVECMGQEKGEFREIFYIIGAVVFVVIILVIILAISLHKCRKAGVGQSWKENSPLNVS

| EC50 [1] | EC50 [2] | Substance |
| --- | --- | --- |
| 15 nM | – | 2-armed ICON1 [Lot 10.1.1] |
| 12.9 nM | – | ICON1_CHO |
| 2.5 nM | 3.59 nM | ICON1_BHK |
